According to the DeepSol protein solubility set:

Test: soluble on expression in E. coli; label from the status in PepcDB or PDB records

| Sequence | soluble on expression in E. coli |
| --- | --- |
| MRGFLFSMAQHFSLSAEARHLSIQVDELSDVEILSLLKTARWGNADNINDIECPHCHVRHEAYFIKTRQQWQCKHCCYRFSITAGTIFHLAKLSLRKILKALRYFALKSKGLSAIELSHEINVQYKTAWGLRHKFREALDKTKDLTPLKDEVHIDGAYTNYYIRPKNFRHKRIDRRKKRYQREDKSCVLVFRQRAANQAQMKGADRSIVALIKEENTQDVLDLTQRLVKQGSTIHTDENPAYDSLQFLYDLWRVNHSQEYCSIEGITNNLAESFFARFRRMIIGVHHKMANRYMLYYANEIAWREDNRLKTDREKLNDVLQRCIKTKPSRHFTGYWQGSKKSPETFGLESINASNDSHYLIAALEHHHHHH | not soluble |
| MLGAIIGDIVGSVYEWNNIKTKDFPLFRKDCFFTDDTVMTCAVAEAIMNGGQKDDFIDAMKKYGRMYPNADYGARFNAWLNSDNREPYNSFGNGSAMRISPCAWIMDCGFYAKTGIWPSSRGLTSLSAEVTHNHPEGVKGAMATADAIFLCRFYFGGYCREYEQSINDNPTECKRRIKDYIEKEYDYNLSQTLDEIRPNYRFNETCQETVPQAIIAFLESRDFEDAIRNAISLGGDSDTLAAITCSIAEAAYGIPDWIKDKAYSYLDEPLKDVVRRWENRIKAY | not soluble |
| MGHHHHHHSHDRVNGVAKEYVIYGYGEPLLYPDFFKRIEGFDGKVVISTNGMLDSDILDLADKVGVSIDVNDKFRKGLEVEKALEVLRKLGERGIAEVVVTKDNLELLPAFFERIAEHGSGMLATNVVASNPAIYEQGVYFECSRITVEKVLGLDESILVEAIKDCSRGGGEALRRYKHLLKEVYSKGYSINLLAIFGRKGRVETAFKA | soluble |
| FTSNKDERRWMVQCGSFRGAEQAETVRAQLAFEGFDSKITTNNGWNRVVIGPVKGKENADSTLNRLKMAGHTNCIRLAAGG | soluble |
| MVLEKIEPAQEEHEKYHSNVKELSHKFGIPNLVARQIVNSCAQCQQKGEAIHGQVNAELGTWQMDCTHLEGKIIIVAVHVASGFIEAEVIPQESGRQTALFLLKLASRWPITHLHTDNGANFTSQEVKMVAWWIGIEQSFGVPYNPQSQGVVEAMNHHLKNQISRIREQANTIETIVLMAVHCMNFKRRGGIGDMTPSERLINMITTEQE | soluble |
| MHNQTVRATVFKANAAAPQTKQIYEDDFSELYGEDIIAPPYNIIELKTIAEYSTILQQCIDAYRVNITGFGFDVEYTFDVNASDVDQAKKKRAEKDWARLEAFYKCLHFDESAEMILGYAIEDREKTGNGFMEVLRDGAGKPAGIEYLDVKYMRVCGAGEPVEVSFVYEENGKMKRIKRQKRFRKYVQMINGKKVFFKEYGDPRKMDIRTGEYVNTLAEKYQANEAIHLKIGSGVYGVPRWIGNIVNLYGARKAEELNFMYFKQGRHVPAAITVENGMLSEASYRELQEYMNDLESVENAHKFLLIEAEGIAKEKDLHGGEDITPVSVEIKSLAEILQNDALFLEYDEKSRNKLRSAFRLPPLYTGEAQEYNRATADTARKITEEQVFQPERKTLVNKLNTLLLPELNIHDVRLTLKGPDFRDPLEIAKVLGPFITAGAVSPNDLRDLAGRVLGKTLEEWPEDIYKRPAGQDAEKTNLAALMQELKESIEDIKTS | not soluble |
| MGSDKIHHHHHHENLYFQGMKIALIIENSQAAKNAVVHEALTTVAEPLGHKVFNYGMYTAEDKASLTYVMNGLLAGILLNSGAADFVVTGCGTGMGSMLAANAMPGVFCGLVIDPTDAFLFGQINDGNAISMPYSKGFGWAAELNLQDVYRKLFDGERGLGYPRERAEIMRKNRGILRELKDASCRDMLTVLKTVDQDLLRAAIAGEKFAELFYPNCKDDAIANYLRSLDA | soluble |
| MSLSEGTFEVGKNTFLLNGEPFVVKAAEIHYPRIPKEYWEHRIKMCKALGMNTICLYVFWNFHEPEEGRYDFAGQKDIAAFCRLAQENGMYVIVRPGPYVCAEWEMGGLPWWLLKKKDIKLREQDPYYMERVKLFLNEVGKQLADLQISKGGNIIMVQVENEYGAFGIDKPYISEIRDMVKQAGFTGVPLFQCDWNSNFENNALDDLLWTINFGTGANIDEQFKRLKELRPDTPLMCSEFWSGWFDHWGAKHETRSAEELVKGMKEMLDRNISFSLYMTHGGTSFGHWGGANFPNFSPTCTSYDYDAPINESGKVTPKYLEVRNLLGNYLPEGETLPEIPDSIPTIAIPTIKMTEMAVLFDNLPHPKESEDIRTMEAFDQGWGSILYRTSLSASDKEQTLLITEAHDWAQVFLNGKKLATLSRLKGEGVVKLPPLKEGDRLDILVEAMGRMNFGKGIYDWKGITEKVELQSDKGVELVKDWQVYTIPVDYSFARDKQYKQQENAENQPAYYRSTFNLNELGDTFLNMMNWSKGMVWVNGHAIGRYWEIGPQQTLYVPGCWLKKGENEIIILDMAGPSKAETEGLRQPILDVQRGNGAYAHRKMGEGHHHHHH | soluble |
| MKFFNREKEINEILLILEEEPNNIYFIYGPLNSGKSTLIREVITNRLDKSKYIPFFIDFRTRNILNVDNFIECLFEVDEKSKIDDFREYAKSLADLLVKGSEEISKYYLGMPIKVPKPFFDRIFSKRDKSADVYQYIEYLFAKLNEKGKKPILIFDELQMIREITLNGNRLLLWSLFQFLVALTKVQHLCHVFCLSSDSLFIEYIYGKAELKGGVDYILVDDFDKKTALKFMDFLAKQKNINLTNEDKELIYSYVGGKAKYIYDVIVKLKAVKDLKYILETKLEEERNHLEELLEKVEEDYEGINYDEVLEALKLFKDNYELPKSKIKRKIRIFLIKENILFLNPQKGTLKPQSYLVWNAIKRML | not soluble |
| MGSDKIHHHHHHATAPSPDFNEARFRNDIKILSSDAFEGRAPTTAGEKLTLDYLSTAFKAAGLKGTNNGSFLQSVPMVTYNASENQAIRLGNLHPAYRKDIVLGSRHNNQGVEISNAPLVFVGYGIKAPEYDWDDYAGLDMQGKIAVILVNDPGFAAPESGKFKGKAMTYYGRWSYKFEEASRQGALGAIIIHDTAPASYPWSVIENSWTGPQQDLADASQTDSRVQVEGWMTLDTAKALFDEAGLSLDTLSQEAALTPGNHDLKQSADIAFTNSATFTDSYNLVATLPGTDRADEHILFTAHWDHIGKDDSRDGDKIYNGALDNASGVAGIVEIARQFAALDAMGFKNRRSITFIATTGEEQGLLGSRYYAANPLFPIDKTIAVLNLDSTNVFGRTKDFTIVGKGQSQLEDYLVAAAKAQGREAVAEKNPASGGFFRSDHFSFAKLGVSAAFAGGGSIPLDDATATYKAEMQQKMKGCYHNVCDEYRADWDLSGALQDLALYYDVARTLANNEHRPGYYQKSEFYPLRPAN | not soluble |
| MDYRQLHRWDLPPEEAIKVQNELRKKIKLTPYEGEPEYVAGVDLSFPGKEEGLAVIVVLEYPSFKILEVVSERGEITFPYIPGLLAFREGPLFLKAWEKLRTKPDVVVFDGQGLAHPRKLGIASHMGLFIEIPTIGVAKSRLYGTFKMPEDKRCSWSYLYDGEEIIGCVIRTKEGSAPIFVSPGHLMDVESSKRLIKAFTLPGRRIPEPTRLAHIYTQRLKKGLFLEHHHHHH | soluble |
| MDGSQGSTDYGDHVVLRYGGTREMVPLIRHEQMLDMLMERARQIVQGFGNLDTRNMYLFRHEYNSPTLLYPITSASQITSGSILEIILVDRTEAAVIPHVVEPESYMRPTFCDFCGEMLTGLMRQGVKCKNCNGNFHKRCSNAARNNCGAPGAPGAQPSRPPILPPIPTTPTGFPVAALSTPTGLPHTLIEHSYRQFTVCKVCDHLLVGLVKQGLKCRDCGVNVHRKCAMELASNCVLSENAISRVNFTDPEGPGSSSSDNIPLFRLPGQVGTRATEKKKLEGWMMHFILSDPERRLKHYWMMQSNAIHLYNEYSEGIGVNPNRVYRIIPLAEITSVVQNNGKSVLAKHPPHCFEIRTTTNTVFCVGEDYHAFSGGPPKKIPRSMSVRPSSNTTMWFQFIKESLQPPSRNEDNAEQALEFANLYQVLSDKTLGSGQFGTVYSAIQRHSGKEVAVKVISKERFSKKGSGAESMRAEVAILQQTCHPGIVCLEFMCETKDKIFVVMEKMNGDMLEMILSQELGRLNSRATKFLLVQILCALKYLHDQGIAHCDLKPENVLLSDMGSNFPQTKICDFGYARFIPESQFRKTVVGTPAYLPPEVLQRKGYNKSLDMWSVGVIIYVTLSGTFPFNEGEEISEQIQNASFMFPTEPWSEVEPLAVDLIQKLLKVEIEARMSIEQCLDHGWLKGEQLYRDLRDLEVRLNTPRYLTSPQDDILYGTLVNP | not soluble |
| MGSDKIHHHHHHMKLGVNLCFAVKRWLEPDRLAGLVRDDLGLEYVQYTYDLTDPWWPDIERDRRAIAYAKAFRKAGLTIESTFGGLASYTYNHFLAPTLELQSLGYQHLKRAIDMTAAMEVPATGMPFGSYSAADALNPARREEIYAIARDMWIELAAYAKRQGLSMLYVEPVPLATEFPSSAADAARLMADLDGRTEIPVRLLVDWGHALFEPLFGPEADMDHWMDLCQPWIAAYHIQQTDGQLDRHWSFTQPGVVTPQRLQDFWDKYALTDQTFFAEILYPFEARDEDVLADMIASVKALKAASPAA | not soluble |
| RRLETQKEAEANRGYGKPSLGGPFHLEDMYGNEFTEKNLLGKFSIIYFGFSNCPDICPDELDKLGLWLNTLSSKYGITLQPLFITCDPARDSPAVLKEYLSDFHPSILGLTGTFDEVKNACKKYRVYFSTPPNVKPGQDYLVDHSIFFYLMDPEGQFVDALGRNYDEKTGVDKIVEHVKSYVPAEQRAKQKEAWYSFLFK | soluble |
| MAHHHHHHMFPQGLIDQWLSKSREGRRSVREDRKATPAILDNIARLEEYCRSHPYDVFCASTLQHPPFALHALESEAAEQQRLAQPPPVFAATVPSPSAHTTASNEVRGGVCGRYADGDESRASVTAARQHLHNVAARLAAYLQSSGAVRSSASRHEEESQCTVVADFFVHLLSEAAVAAVYRQGIAAQVEAEERAAFQHRQSQRRLQLRVDSKHDGTLQRLELSDSKGADTEAVHEVEGLTVVRPIADYRRLSQGLASLWSLLAQTQRRGGLAVGGPSKERSRDSTADTDSVNDNDNLWTRVRVDCLRHWLGDRALPPPPPLPGTAALGETQRKTEASSPAMPGGAWWSRPLYISERDVEFALRKVLADVTASAAS | soluble |
| MAHHHHHHMARTLLLNIQHHQPDLGLSEVDIELGMLAGLLHDVGHGPFSHLFEDVVSRRCGIEFNHEDMSEKIARRVLRDLVPQTHVDVVVGLMRGKALLGITYGEIISNKRNGIDVDRLDYFIRDSMCCFGKPTVDVRVNRLFNSARIVCEEGQWQLGFEQKLALSLREIFTLRAKLHKNVYQHQVTKAIGHMIGDVIHAAAPHFRVGGHTLVECAQDETLFLKLGDWILEAIEASEAPHLAEAHAILHRLRTRDIYRVAYSSALDITMRAPMAAVDWPAAILEHAHPSFPLNADDFIAEVVVINQGKGTEDPLESVLFFNPKKPSQPLTRLKPAEDLKHGSPLFTPLQFEERTLMVFERRPTNGAVQRACERLNADPKYAAFFTDSLPFYNTK | soluble |
| MGSDKIHHHHHHMILTKEKSLNAGPIYGTGEGVAHSKRWYVALVRMHHEKKVSEYLNKVGIENFVPVQKEIHQWSDRRKLVESVLLPMMVFVHADPKERMEVLNFTTVSRYMVMRGESSPAVIPDDQMARFRFMLDYSDETVCMNSSPLARGEKVQVIKGPLQGLVGELVNVDGKSKIAVRLNMLGCACVDMPIGYVEPIGEKN | not soluble |
| MKPVTLYDVAEYAGVSYQTVSRVVNQASHVSAKTREKVEAAMAELNYIPNRVAQQLAGKQSLLIGVATSSLALHAPSQIVAAIKSRADQLGASVVVSMVERSGVEACKAAVHNLLAQRVSGLIINYPLDDQDAIAVEAACTNVPALFLDVSDQTPINSIIFSHEDGTRLGVEHLVALGHQQIALLAGPLSSVSARLRLAGWHKYLTRNQIQPIAEREGDWSAMSGFQQTMQMLNEGIVPTAMLVANDQMALGAMRAITESGLRVGADISVVGYDDTEDSSCYIPPLTTIKQDFRLLGQTSVDRLLQLSQGQAVKGNQLLPVSLVKRKTTLAPNTQTASPRALADSLMQLARQVSRLESGQ | soluble |
